Test system: MS2 coat protein
Test: apparent KD of MS2 coat protein; designed switch direction (-1 OFF switch, 1 ON switch): -1; higher = weaker reporter binding
Outline: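 SNAP-549-labelled MS2 coat protein was titrated, doubling from 0.7 or 1.5 nM to 3 µM, over designed RNA switches transcribed on Illumina chips by stalled E. coli RNA polymerase. Runs were done without input, with 200 uM small-molecule ligand, or with an oligonucleotide input. Apparent KD is the per-design median over clusters of curve-fitted normalised fluorescence.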

[1] = Eterna round: R95, input ligand: microRNA oligo, concentration not stated
[2] = Eterna round: R95, input ligand: FMN 200 uM
[3] = Eterna round: R95, input ligand: none
[4] = input ligand: microRNA oligo, concentration not stated

Sequence	apparent KD of MS2 coat protein [1]	apparent KD of MS2 coat protein (input ligand: FMN 200 uM)	apparent KD of MS2 coat protein (input ligand: none)	apparent KD of MS2 coat protein [2]	apparent KD of MS2 coat protein [3]	apparent KD of MS2 coat protein [4]
GGUGCGUAUGUGAGGAUAUGCUGGUCCUUGGCUCGGCAGAAGGCACAUGAGGAUCACCCAUGUGGUGUCGUACC [salish99_Bmod_ex4_054] (puzzle: Brourd's mod of Exclusion 4)	141 nM					
CAAGCAGAAUAAAGGUCCGACAUGAGGAUCACCCAUGUUCGUCGGGAUAUGCUUCCUUUACGAGGGAGCACCAGAAA [Eternabot (L2) Solution 25] (Eterna round: R97, puzzle: Sensor, turn-off variant 1)		34.3 nM	38.2 nM			
GGGCUCGGAGGAUAUACAAUCUCGGGCUGAAAGGCUCGGGUACAUGAGGAUCACCCAUGUAGAAGGUCGGGCUC [-30.2, -27.6 kcal A 24%, 4bis,4] (Eterna round: R97, puzzle: Exclusion 2)		26 nM	15.9 nM			
GUAAUUCGAGGAUAUGCCCAUCUAAACAUGAGGAUCACCCAUGUGCGCAUGUUUACCAUCGCAGAAGGCGAGCUGC [Eternabot (L1) Solution 31] (Eterna round: R97, puzzle: Exclusion 5)		39.3 nM	25.5 nM			
GCCUUGGGAGUCAGGAUAUACAAUAAAAUAAUUAAGUAGAAGGGACAUGAGGAUCACCCAUGUACAUUACAUUG [alecazam30] (Eterna round: R97, puzzle: Brourd's mod of Exclusion 4)		48 nM	13.3 nM			
AUAAUGUCAGGAUAUACUAAUGAUGAAUGAUCAGACAUUAUGUAGAAGGGACAUGAGGAUCACCCAUGUAAUAU [EX4 #3] (Eterna round: R97, puzzle: Exclusion 4)		35.5 nM	29.1 nM			
GGUCUGCGAGGAUAUACAUGAGGAUCACCCAUGUGCGAGAUACUAGUGAGGUCGAUUGGUAGAAGGCGCGGACG [JL-ex3-2.06 salish99 mod] (puzzle: Exclusion 3)	86.4 nM			182 nM	88.8 nM	
UGAGACUGAGGAUAUACUAGCCCAUAAAGUGGGUUGUGGGUACAUGAGGAUCACCCAUGUAGAAGGCAGCCUCG [Omei Repeat Sequence v4] (Eterna round: R97, puzzle: Exclusion 2)		516 nM	75.4 nM			
GAGUUAACAUGAGGAAUAUACAUGAGGAUCACCCAUGUUAACAAAAUUUUUGCUCGUCUUAUAACAACAAUUAACUC [Alarm 3 - Jieux - Sensor, turn-off variant 1] (Eterna round: R97, puzzle: Sensor, turn-off variant 1)		272 nM	151 nM			
UUCGUGCUGCUUUGCUGUACGAGUACAUGAGGAUCACCCAUGUAGGAUAUGGUACGCUUUGCGUGCUAGAAGGAUAUGUGUAGC [salish99_ExNG3_r04_505] (Eterna round: R96, puzzle: Exclusion NG 3)		26.7 nM	25.4 nM			18.9 nM
GGUCAAGGACAGAUCCGCGCUGCCCUUGACCGCUCAUUUACAUGAGGAUCACCCAUGUUUUUUGCUUGUCUUGUUAC [Erbete] (puzzle: Sensor v3, turn-off variant 2)	94 nM			16.2 nM	18.1 nM	
GCUAAGAGUGUGAGGAUAUGCUGGUCCUUGGAUCAGCAGAAGGCACAUGAGGAUCACCCAUGUGAAAACUUAGC [Mat - Exclusion 4 - JL Mod - D64] (puzzle: Brourd's mod of Exclusion 4)	19.9 nM					
CUCUUGUUAGGAUAUCAAACCGGCGGCGGAGCCGCCGGUAGUGAGAAGGGACAUGAGGAUCACCCAUGUAAGAA [Isarcedi] (puzzle: Exclusion 4)	65.2 nM					
GGAAAGGUAGGAUAUACGAAAAAAAAGGGUAGAAAAAAAACACAUGAGGAUCACCCAUGUAGAAGGACCAAAAG [salish99_ex2_r3_036] (puzzle: Exclusion 2)	36.1 nM			44.8 nM	33 nM	
CUGUGUAGACAGGAUAUGCUGUACAAAAGUACAGCAGAAGGGUCUACAUGAGGAUCACCCAUGUUUACUUCAUG [)mei Ex6 B23] (Eterna round: R97, puzzle: Exclusion 6)		20.4 nM	98.4 nM			
AUAAUGUCAGGAUAUCAGUCGACUAGCUUCGGCUAGUCGACUGAGAAGGGACAUGAGGAUCACCCAUGUGUUUC [E4/14-A1] (Eterna round: R97, puzzle: Exclusion 4)		2390 nM	505 nM			
AACAGUCUAGAGGAUAUGCUGGAUGAAUAUCUGGCAGAAGGCUGGACAUGAGGAUCACCCAUGUAAAUACUACC [Omei Ex6 A1c] (Eterna round: R97, puzzle: Exclusion 6)		96.9 nM	36.5 nM			
CAGUACUGCAGGCUUCGGGACAUGAGGAUCACCCAUGUUCGUCUUAUUGAUCUAGGUACGCUGACGUACCUAGAUCU [JL-sv1-2.16 Brourd mod] (puzzle: Sensor v3, turn-off variant 1)	18.6 nM			16.7 nM	15.4 nM	
GCUGGACAAGGAUAUAUAUGACGUGCUUCGGCACGAAGGUCACAUGAGGAUCACCCAUGUAGAAGGUGUCCAGC [E2/9-C2] (Eterna round: R97, puzzle: Exclusion 2)		342 nM	49.7 nM			
GCCGGUGUUGCGGAUAAGCUUUUCUGCUCGUUUUAUCGCACAUGAGGAUCACCCAUGUCAUCCGUCAGCAUGCAAAC [Aredardi] (puzzle: Sensor v3, turn-off variant 2)	40.7 nM			26 nM	25.6 nM	
UUAUACGUUGAGGAUAUGCGACUUAGUAUAGUUGUAGAAGGCGAUACAUGAGGAUCACCCAUGUUUAUGGGCAU [LRO-Ex6-09] (puzzle: Exclusion 6)	227 nM					
AAUUAGUAUGUGAGGAUAUUAAUGGAAUGACUUAUUAAGAAGGCACAUGAGGAUCACCCAUGUGGGAAGUCACG [JR_BMEx4_Sub013] (Eterna round: R97, puzzle: Brourd's mod of Exclusion 4)		49.2 nM	15.6 nM			
GUUGUUUAUGUAGGAUAUGCCUGGCGUGCCUUUGCAGAAGGACAUGAGGAUCACCCAUGUAUUGCGGUCUGCGUUCAGAUCGCU [salish99_ExNG1_r4_022] (Eterna round: R96, puzzle: Exclusion NG 1)		45.6 nM	34.8 nM			26.2 nM
CUUUUGUGAGGAUAUCAUUAGUAAAUAAAUAAAAUUACUACUGAGAAGGCACAUGAGGAUCACCCAUGUUCCUC [salish99_ex3_r3_072] (puzzle: Exclusion 4)	31.8 nM					
AGAAGUAGAAACCGAUCCUACAUGAGGAUCACCCAUGUAGCAAGACGUGCACGCGAAGCUCGUCAGACUACCAGAGG [salish99_TOv1_r3_018] (puzzle: Sensor v3, turn-off variant 1)	124 nM			316 nM	50.1 nM	
ACAUGAGGAUCACCCAUGUCAGGCGGGUCCUCUCCGGCUGUUGAGGAUAUAGUUCGGUAUCCGCGCUAGAAGGUGAGGGCCGGC [Aenatbe mod 21] (Eterna round: R96, puzzle: Exclusion NG 3)		15.1 nM	17.1 nM			9.99 nM
